Five molecules from US20250288675A1 (published 2025) can be followed below.

Experiment [1] addresses T1, PRAME peptide on HLA-A*02:01 (human).
T1 peptide: SLLQHLIGL
The experiment can be described thus: killing.

Experiment [2] addresses T2, MAGE-A1 peptide on HLA-A*02:01 (human).
T2 peptide: KVLEYVIKV
The experiment can be described thus: activation reporter or marker. From the text: (§1) Reporter HEK293T cells expressing exclusively HLA-A*02:01 and expressing a granzyme B-activated infrared fluorescent protein (IFP) were further engineered to express either MAGE-A1 or PRAME. The MAGE-A1 expressing cells were GFP-labeled, and the PRAME-positive cells were labeled with both GFP and CellTrace™ Violet to enable tracking in downstream flow cytometry readouts. When a TCR-T cell recognizes a target cell, it secretes cytotoxic granules into the target cell, triggering the target cell to become fluorescent (IFP-positive). The two target cells (i.e., PRAME- or MAGE-A1 positive) were mixed at a balanced ratio and co-cultured with MAGE-A1 TCR-T cells, PRAME TCR-T cells, or a multiplex product combining the two TCR-T cells. PRAME TCR-T cells and MAGE-A1 TCR-T cells were engineered from T cells from the same donor. The TCR-T cells corresponded to pan T cells engineered by lentivirus transduction using a delivery vector employing MGTM modification and co-delivering CD8α and CD8β co-receptor as described above (such as a Table 1). Donor-matched non-engineered T cells (NTC) were also included as a control. The experiment then measured the proportion of each subset of target (GFP-positive, MAGE-A1 target; GFP/CTV-positive, PRAME target) getting recognized and targeted by TCR-T cells as measured by the proportion of GFP or GFP/CTV becoming IFP-positive. […]

The target in experiment [3] is T3, HPV16 E7 peptide on HLA-A*02:01 (human).
T3 peptide: YMLDLQPET
The experiment can be described thus: killing.

For experiment [4], the target named is T4, MAGE-A1 peptide on HLA-C*07:02 (human).
T4 peptide: VRFFFPSL
The experiment can be described thus: killing.

In experiment [5] the target is T2, MAGE-A1 peptide on HLA-A*02:01. The experiment can be described thus: killing.
The target of experiment [6] is T1, PRAME peptide on HLA-A*02:01. The experiment can be described thus: activation reporter or marker.
Text: as §1

Experiment [7] has as its target T5, MAGE-C2 peptide on HLA-B*07:02 (human).
T5 peptide: RAREFMELL
The experiment can be described thus: killing.

B1: PRAME-425-366 (TCR, V domains shown)
Valpha: AQTVTQSQPEMSVQEAETVTLSCTYDTSESDYYLFWYKQPPSRQMILVIRQEAYKQQNATENRFSVNFQKAAKSFSLKISDSQLGDAAMYFCAYRKTSYDKVIFGPGTSLSVIP
Vbeta: AAGVIQSPRHLIKEKRETATLKCYPIPRHDTVYWYQQGPGQDPQFLISFYEKMQSDKGSIPDRFSAQQFSDYHSELNMSSLELGDSALYFCASSFARLEGRDNEQFFGPGTRLTVL
Consider B1, for which the binding result was “recognises” in experiment [1] and “no recognition” in experiment [2].

B2: E7-11-28 (TCR, V domains shown)
Valpha: GQQVMQIPQYQHVQEGEDFTTYCNSSTTLSNIQWYKQRPGGHPVFLIQLVKSGEVKKQKRLTFQFGEAKKNSSLHITATQTTDVGTYFCAGIGSSNTGKLIFGQGTTLQVKP
Vbeta: EPEVTQTPSHQVTQMGQEVILRCVPISNHLYFYWYRQILGQKVEFLVSFYNNEISEKSEIFDDQFSVERPDGSNFTLKIRSTKLEDSAMYFCAITGRVSYEQYFGPGTRLTVT
On to B2, for which the binding result in experiment [3] was “recognises”.

B3: MAGEA1 TCR 32-41 (TCR, V domains shown)
Valpha: TQLLEQSPQFLSIQEGENLTVYCNSSSVFSSLQWYRQEPGEGPVLLVTVVTGGEVKKLKRLTFQFGDARKDSSLHITAAQPGDTGLYLCAGDESISYGKLTFGQGTILTVHP
Vbeta: DAGVIQSPRHEVTEMGQEVTLRCKPISGHDYLFWYRQTMMRGLELLIYFNNNVPIDDSGMPEDRFSAKMPNASFSTLKIQPSEPRDSAVYFCASSFLGWNEKLFFGSGTQLSVL
With B3, the binding result in experiment [4] is “recognises”; in experiment [5], “no recognition”.

B4: MAGEA1-278-1479 (TCR, V domains shown)
Valpha: EDQVTQSPEALRLQEGESSSLNCSYTVSGLRGLFWYRQDPGKGPEFLFTLYSAGEEKEKERLKATLTKKESFLHITAPKPEDSATYLCAVSYGQNFVFGPGTRLSVLP
Vbeta: EAGVTQSPTHLIKTRGQQATLRCSPISGHTSVYWYQQALGLGLQFLLWYDEGEERNRGNFPPRFSGRQFPNYSSELNVNALELEDSALYLCASSLGQLNTEAFFGQGTRLTVV
On to B4, for which the binding result is recorded as “no recognition” in experiment [4], “recognises” in experiment [5] and “no recognition” in experiment [6].

B5: MAGEC2 TCR 8-3 (TCR, V domains shown)
Valpha: ILNVEQSPQSLHVQEGDSTNFTCSFPSSNFYALHWYRWETAKSPEALFVMTLNGDEKKKGRISATLNTKEGYSYLYIKGSQPEDSATYLCASGSGGATNKLIFGTGTLLAVQP
Vbeta: GEEVAQTPKHLVRGEGQKAKLYCAPIKGHSYVFWYQQVLKNEFKFLISFQNENVFDETGMPKERFSAKCLPNSPCSLEIQATKLEDSAVYFCASSQSRSLRGTEAFFGQGTRLTVV
As for B5, in experiment [7], the binding result is on record as “recognises”.
